Assay results as given in paper PMC9482650, “Quantitative fragmentomics allow affinity mapping of interactomes” (Nature Communications, 2022).

T1: APBA1_1, Q02410
T1 sequence (Q02410 651-752, limits assumed, looked up): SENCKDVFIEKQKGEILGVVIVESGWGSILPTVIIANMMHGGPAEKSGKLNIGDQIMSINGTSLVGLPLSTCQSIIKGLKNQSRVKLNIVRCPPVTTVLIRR

T2: ARHGAP21, Q5T5U3
T2 sequence (Q5T5U3 45-169, limits assumed, looked up): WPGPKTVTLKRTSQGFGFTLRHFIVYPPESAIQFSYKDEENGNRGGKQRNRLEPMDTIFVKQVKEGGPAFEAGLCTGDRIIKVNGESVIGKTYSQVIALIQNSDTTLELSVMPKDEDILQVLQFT

T3: DFNB31_1, Q9P202
T3 sequence (Q9P202 135-233, limits assumed, looked up): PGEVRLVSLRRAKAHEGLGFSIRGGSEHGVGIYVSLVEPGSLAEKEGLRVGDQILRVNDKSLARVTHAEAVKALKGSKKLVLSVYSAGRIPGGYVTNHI

T4: DLG3_1, Q92796
T4 sequence (Q92796 125-227, limits assumed, looked up): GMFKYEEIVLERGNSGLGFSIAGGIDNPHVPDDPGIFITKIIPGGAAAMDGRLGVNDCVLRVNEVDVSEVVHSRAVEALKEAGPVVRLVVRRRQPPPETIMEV

T5: DLG3_3, Q92796
T5 sequence (Q92796 374-475, limits assumed, looked up): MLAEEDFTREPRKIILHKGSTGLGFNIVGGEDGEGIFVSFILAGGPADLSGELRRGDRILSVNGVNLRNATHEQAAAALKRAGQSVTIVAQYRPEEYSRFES

T6: HTRA3, P83110
T6 sequence (P83110 354-453, limits assumed, looked up): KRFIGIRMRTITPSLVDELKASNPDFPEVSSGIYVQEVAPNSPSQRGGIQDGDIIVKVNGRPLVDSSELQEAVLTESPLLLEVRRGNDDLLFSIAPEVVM

T7: HTRA4, P83105
T7 sequence (P83105 378-476, limits assumed, looked up): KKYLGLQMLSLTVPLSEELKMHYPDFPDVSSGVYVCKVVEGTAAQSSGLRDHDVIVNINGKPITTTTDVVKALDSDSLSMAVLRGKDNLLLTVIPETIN

T8: MPDZ_5, O75970
T8 sequence (O75970 695-796, limits assumed, looked up): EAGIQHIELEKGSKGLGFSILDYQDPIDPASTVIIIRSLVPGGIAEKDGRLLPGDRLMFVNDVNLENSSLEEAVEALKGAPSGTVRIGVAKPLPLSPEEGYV

T9: MPP6, Q9NZW5
T9 sequence (Q9NZW5 125-219, limits assumed, looked up): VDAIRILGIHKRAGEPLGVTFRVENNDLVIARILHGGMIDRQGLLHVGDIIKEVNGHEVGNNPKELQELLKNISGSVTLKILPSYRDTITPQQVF

T10: NHERF3_3, Q5T2W1
T10 sequence (Q5T2W1 238-333, limits assumed, looked up): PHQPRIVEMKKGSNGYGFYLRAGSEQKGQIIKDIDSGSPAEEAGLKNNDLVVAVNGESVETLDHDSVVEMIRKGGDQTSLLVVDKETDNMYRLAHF

T11: PCLO, Q9Y6V0
T11 sequence (Q9Y6V0 4491-4600, limits assumed, looked up): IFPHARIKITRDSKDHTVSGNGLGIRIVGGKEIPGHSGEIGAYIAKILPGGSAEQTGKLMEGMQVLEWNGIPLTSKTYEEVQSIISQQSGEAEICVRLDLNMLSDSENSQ

T12: RHPN1, Q8TCX5
T12 sequence (Q8TCX5 508-602, limits assumed, looked up): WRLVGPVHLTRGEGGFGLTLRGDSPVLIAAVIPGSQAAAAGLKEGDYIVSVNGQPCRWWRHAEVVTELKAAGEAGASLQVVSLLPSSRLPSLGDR

T13: TJP3_3, O95049
T13 sequence (O95049 375-456, limits assumed, looked up): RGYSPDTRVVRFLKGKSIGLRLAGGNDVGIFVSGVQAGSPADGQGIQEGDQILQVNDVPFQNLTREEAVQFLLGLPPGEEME


Assays:
Test in all cases: holdup assay
Parameters in all cases: key: below the threshold = too weak to quantify, mostly under pKd 3.1 to 4
Conditions in all cases: plain residues with an end cap or a label only (N-terminal biotin on a linker: ado-ado)
APBA1_1, Q02410 = molecular target: T1, APBA1_1, Q02410
ARHGAP21, Q5T5U3 = molecular target: T2, ARHGAP21, Q5T5U3
ARHGEF12, Q9NZN5-2 = molecular target: ARHGEF12, Q9NZN5-2
DFNB31_1, Q9P202 = molecular target: T3, DFNB31_1, Q9P202
DLG1_1, Q12959 = molecular target: DLG1_1, Q12959
DLG3_1, Q92796 = molecular target: T4, DLG3_1, Q92796
DLG3_3, Q92796 = molecular target: T5, DLG3_3, Q92796
GORASP1, Q9BQQ3 = molecular target: GORASP1, Q9BQQ3
GORASP2, Q9H8Y8 = molecular target: GORASP2, Q9H8Y8
HTRA3, P83110 = molecular target: T6, HTRA3, P83110
HTRA4, P83105 = molecular target: T7, HTRA4, P83105
LIMK2, P53671 = molecular target: LIMK2, P53671
LNX1_1, Q8TBB1 = molecular target: LNX1_1, Q8TBB1
LNX1_3, Q8TBB1 = molecular target: LNX1_3, Q8TBB1
MAGI1_1, Q96QZ7 = molecular target: MAGI1_1, Q96QZ7
MAGI2_6, Q86UL8 = molecular target: MAGI2_6, Q86UL8
MPDZ_5, O75970 = molecular target: T8, MPDZ_5, O75970
MPP6, Q9NZW5 = molecular target: T9, MPP6, Q9NZW5
NHERF3_3, Q5T2W1 = molecular target: T10, NHERF3_3, Q5T2W1
PCLO, Q9Y6V0 = molecular target: T11, PCLO, Q9Y6V0
PDZRN4_1, Q6ZMN7 = molecular target: PDZRN4_1, Q6ZMN7
PTPN3, P26045 = molecular target: PTPN3, P26045
RHPN1, Q8TCX5 = molecular target: T12, RHPN1, Q8TCX5
TJP3_3, O95049 = molecular target: T13, TJP3_3, O95049

Chain of PDZRN4_1, Q6ZMN7 (Q6ZMN7 213-318): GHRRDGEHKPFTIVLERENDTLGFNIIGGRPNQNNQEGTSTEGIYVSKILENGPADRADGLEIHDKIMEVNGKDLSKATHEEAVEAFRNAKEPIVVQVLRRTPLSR
Chain of MAGI2_6, Q86UL8 (Q86UL8 1141-1229): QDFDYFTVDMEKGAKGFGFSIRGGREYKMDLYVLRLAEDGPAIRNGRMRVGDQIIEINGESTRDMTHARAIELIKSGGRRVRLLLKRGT
Chain of MAGI1_1, Q96QZ7 (Q96QZ7 1-106): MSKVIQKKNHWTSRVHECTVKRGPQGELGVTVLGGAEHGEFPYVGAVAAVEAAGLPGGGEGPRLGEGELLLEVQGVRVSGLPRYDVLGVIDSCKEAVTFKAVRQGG
Chain of PTPN3, P26045 (P26045 505-587): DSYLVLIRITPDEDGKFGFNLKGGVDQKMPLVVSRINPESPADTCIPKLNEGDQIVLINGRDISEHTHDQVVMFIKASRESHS
Chain of ARHGEF12, Q9NZN5-2 (Q9NZN5 other isoform, or with tags, fused parts or gaps): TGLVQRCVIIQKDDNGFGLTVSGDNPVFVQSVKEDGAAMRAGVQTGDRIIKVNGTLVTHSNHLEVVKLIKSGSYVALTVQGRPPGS
Chain of LNX1_1, Q8TBB1 (Q8TBB1 261-371): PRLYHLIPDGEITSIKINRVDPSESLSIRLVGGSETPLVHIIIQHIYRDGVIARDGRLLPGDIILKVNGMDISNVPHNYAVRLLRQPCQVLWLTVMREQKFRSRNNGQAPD
Chain of LNX1_3, Q8TBB1 (Q8TBB1 500-596): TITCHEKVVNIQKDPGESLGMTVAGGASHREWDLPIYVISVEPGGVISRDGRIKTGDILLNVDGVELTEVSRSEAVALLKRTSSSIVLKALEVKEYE
Chain of GORASP1, Q9BQQ3 (Q9BQQ3 1-208): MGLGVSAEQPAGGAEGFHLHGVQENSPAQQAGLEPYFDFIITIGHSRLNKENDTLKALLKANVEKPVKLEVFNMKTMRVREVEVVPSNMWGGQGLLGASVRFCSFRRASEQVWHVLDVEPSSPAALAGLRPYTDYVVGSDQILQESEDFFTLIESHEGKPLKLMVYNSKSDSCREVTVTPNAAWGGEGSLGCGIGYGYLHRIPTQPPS
Chain of LIMK2, P53671 (P53671 143-248): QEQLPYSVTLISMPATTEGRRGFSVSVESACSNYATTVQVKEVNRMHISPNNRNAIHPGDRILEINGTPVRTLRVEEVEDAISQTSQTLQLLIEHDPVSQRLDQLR

Binder | pKd (APBA1_1, Q02410) | pKd (ARHGAP21, Q5T5U3) | pKd (ARHGEF12, Q9NZN5-2) | pKd (DLG1_1, Q12959) | pKd (DLG3_3, Q92796) | pKd (GORASP1, Q9BQQ3) | pKd (GORASP2, Q9H8Y8) | pKd (HTRA3, P83110) | pKd (HTRA4, P83105) | pKd (LIMK2, P53671) | pKd (LNX1_1, Q8TBB1) | pKd (MAGI1_1, Q96QZ7) | pKd (MAGI2_6, Q86UL8) | pKd (MPDZ_5, O75970) | pKd (MPP6, Q9NZW5) | pKd (NHERF3_3, Q5T2W1) | pKd (PCLO, Q9Y6V0) | pKd (PDZRN4_1, Q6ZMN7) | pKd (RHPN1, Q8TCX5) | pKd (TJP3_3, O95049) | other results
IDESKKEWLI [CNTNAP2, Q9UHC6] | below the threshold | below the threshold | below the threshold | below the threshold | below the threshold | 4.25 | 3.94 | 4.15 | below the threshold | below the threshold | below the threshold | below the threshold | below the threshold | below the threshold | 4.54 | below the threshold | below the threshold | below the threshold | below the threshold | below the threshold | pKd (DFNB31_1, Q9P202): below the threshold; pKd (DLG3_1, Q92796): below the threshold; pKd (LNX1_3, Q8TBB1): below the threshold; pKd (PTPN3, P26045): 4.07
KRPEMTSSSV [MUC3A, MUC3B, Q02505;Q9H195] | below the threshold |  |  | 1.76 | 1.84 | below the threshold | below the threshold | below the threshold | below the threshold |  | 1.88 | below the threshold | 3.66 | below the threshold | below the threshold | below the threshold | below the threshold | below the threshold | 3.84 | below the threshold | pKd (LNX1_3, Q8TBB1): below the threshold
DTKNYKQTSV [CRIPT, Q9P021] | below the threshold | 3.75 | 4.36 | 4.35 | 5.16 | below the threshold | below the threshold | below the threshold | 3.95 | below the threshold | 3.78 | below the threshold | 3.75 | below the threshold | below the threshold | below the threshold | below the threshold | 4.12 | 4.07 | below the threshold | pKd (DFNB31_1, Q9P202): 4.32; pKd (DLG3_1, Q92796): 3.69; pKd (LNX1_3, Q8TBB1): below the threshold; pKd (PTPN3, P26045): 5.07
SRSVVESDEL [MYPN, Q86TC9] | below the threshold | 3.51 | 3.58 | below the threshold | below the threshold | below the threshold | below the threshold | below the threshold | below the threshold | below the threshold | below the threshold | 3.53 | below the threshold | below the threshold | below the threshold | below the threshold | below the threshold | below the threshold | below the threshold | below the threshold | pKd (DFNB31_1, Q9P202): below the threshold; pKd (DLG3_1, Q92796): below the threshold; pKd (LNX1_3, Q8TBB1): below the threshold; pKd (PTPN3, P26045): 3.99

Second part, led by results:

pKd (APBA1_1, Q02410) | pKd (ARHGAP21, Q5T5U3) | pKd (ARHGEF12, Q9NZN5-2) | pKd (DLG1_1, Q12959) | pKd (DLG3_3, Q92796) | pKd (GORASP1, Q9BQQ3) | pKd (GORASP2, Q9H8Y8) | pKd (HTRA3, P83110) | pKd (HTRA4, P83105) | pKd (LIMK2, P53671) | pKd (LNX1_1, Q8TBB1) | pKd (MAGI1_1, Q96QZ7) | pKd (MAGI2_6, Q86UL8) | pKd (MPDZ_5, O75970) | pKd (MPP6, Q9NZW5) | pKd (NHERF3_3, Q5T2W1) | pKd (PCLO, Q9Y6V0) | pKd (PDZRN4_1, Q6ZMN7) | pKd (RHPN1, Q8TCX5) | pKd (TJP3_3, O95049) | Binder | other results
below the threshold | 3.93 | 5.05 | below the threshold | below the threshold | below the threshold | below the threshold | below the threshold | 3.91 | below the threshold | below the threshold | below the threshold | below the threshold | below the threshold | below the threshold | below the threshold | below the threshold | below the threshold | 3.92 | below the threshold | PSVGSKKTVL [REELD1, A0A1B0GV85] | pKd (DFNB31_1, Q9P202): below the threshold; pKd (DLG3_1, Q92796): below the threshold; pKd (LNX1_3, Q8TBB1): below the threshold; pKd (PTPN3, P26045): 3.64
below the threshold | below the threshold | 3.91 | below the threshold | below the threshold | 4.06 |  | below the threshold | 4.4 | below the threshold |  | below the threshold | 4.05 | below the threshold | below the threshold | below the threshold | below the threshold | below the threshold | below the threshold | below the threshold | KSRVAFFEEL [NF2, P35240;P35240-1] | pKd (PTPN3, P26045): 4.22
